Results on nine compounds are retold here after PMC11876737, “Side-by-Side Comparison of the In Vivo Performance of [^212Pb]Pb-DOTAMTATE and Other SSTR2-Targeting Compounds” (Journal of Nuclear Medicine, 2025).

Like-named read-outs stand apart in the source and are kept apart here. Positions of bridges follow the written chain, without caps; N, C: chain ends. Non-standard residues stand in square brackets, D forms with d. Residues, ends and D or L forms follow the SMILES beside them. *: point of attachment. DO3AM = NC(=O)CN1CCN(CC(N)=O)CCN(CC(=O)*)CCN(CC(N)=O)CC1; dPhe(4-NHCONH2) = NC(=O)Nc1ccc(C[C@@H](N)C(=O)O)cc1; Dihydroorotyl(S) = O=C1C[C@@H](C(=O)*)NC(=O)N1; Phe(4-Cl) = N[C@@H](Cc1ccc(Cl)cc1)C(=O)O; Phe(4-NH2) = Nc1ccc(C[C@H](N)C(=O)O)cc1

Series [1] has as its system SSTR2-overexpressing tumors, AR42J. The experiment in a line: Biodistribution of ^212Pb SSTR2 analogs in AR42J tumor-bearing mice. Format: in vivo, athymic nude female mice. As for the experimental part: (§1) The background was automatically subtracted from the counts. A standard was also used for decay correction to time of injection or time of collection. The percent injected dose per gram (%ID/g) was calculated for each organ collected.  FIGURE 2. In vivo distribution of ^212Pb-radiolabeled SSTR2 analogs in athymic nude female mice carrying subcutaneous AR42J tumors. […] Tissue uptake is expressed as %ID/g ± SD decay corrected to time of injection (n = 4-5). In our study, we propose to use the integral of the time-activity curve, also known as the AUC, as a surrogate measure for estimating the absorbed dose. We calculated all SSTR2 analogs' AUC for kidneys and tumors including tumor-to-kidney ratios (T/K AUC ratio) (Figs. 3 and 4). We observed distinct AUC patterns and consequently distinct T/K AUC ratios across the different compounds.

Test in series [2]: as above
Format: in vivo, athymic nude female mice. Particulars: female, athymic nude, mouse, in vivo, iv, total radioactivity. The protocol:
as §1

A short description of series [3]: ^212Pb chelate RCY after 24 h at room temperature (instant thin-layer chromatography). The settings on record: 24 h at RT; 444 MBq/50 μg (27.5 nmol); triplicate ± SD. In kind it is physicochemical. The protocol: The radioisotope-free compounds were diluted in metal-free water at needed concentrations and were stored at -20°C. ^212Pb was produced using ^224Ra generators (Orano Med LLC). Chelation was performed by incubating 27.5 nmol of peptide per 444 MBq of ^212Pb for 10 min at room temperature in 0.4 M ammonium acetate buffer, with a pH of 6.1. Radiochemical purity, assayed by instant thin-layer chromatography was used to confirm that ^212Pb chelation was greater than 95%. Radiolabeled peptides were spotted onto an instant thin-layer chromatography strip and allowed to migrate in a 22% citrate buffer. The instant thin-layer chromatography strip was then cut in half and counted using a calibrated Perkin Elmer Wizard2 2470 automatic γ-counter with an energy window of 185-250 keV considering ^212Pb major emitted γ-rays (238 keV). Samples were diluted to appropriate activity before injection in a buffer containing ascorbic acid, ethanol, and polysorbate-20. […], and PSC-PEG2-TATE (Fig. 1) were radiolabeled at a specific activity of 444 MBq per 50 μg (or 27.5 nmol) in a chelation buffer containing 5% ethanol, 20 mM ascorbic acid, and 0.02% polysorbate 80. The chelation of ^212Pb appears to occur more slowly with the PSC than with the DOTA and DOTAM chelators. […] The RCY remained above 95% at 24 h for all compounds.

For a further series, the system named is SSTR2. The settings on record: cited from earlier work.
In another series the test system is somatostatin receptor 5. Further details: method as in PMID 10774879. Particulars: cited from earlier work.
In a further series the test system is somatostatin receptor 3. Further details: method as in PMID 10774879. Particulars: cited from earlier work.
Setting [4] is: time-activity curve of %ID/g at 1, 4, 24 h, decay corrected to time of collection.

For `C[C@@H](O)[C@@H]1NC(=O)[C@H](CCCCN)NC(=O)[C@@H](Cc2ccc(NC(N)=O)cc2)NC(=O)[C@H](Cc2ccc(NC(=O)[C@@H]3CC(=O)NC(=O)N3)cc2)NC(=O)[C@H](NC(=O)[C@H](Cc2ccc(Cl)cc2)NC(=O)CN2CCN(CC(N)=O)CCN(CC(N)=O)CCN(CC(N)=O)CC2)CSSC[C@@H](C(=O)N[C@H](Cc2ccc(O)cc2)C(N)=O)NC1=O` [[^212Pb]Pb-DOTAM-JR11, DOTAM-p-Cl-Phe-cyclo(D-Cys-Aph(Hor)-D-Aph(Cbm)-Lys-Thr-Cys)D-Tyr-ONH2, metal not drawn] (DO3AM-[Phe(4-Cl)][dC][Phe(4-NH2)](Dihydroorotyl(S))[dPhe(4-NHCONH2)]KTC[dY]-NH2; disulfide 2-7), in series [1] (mouse, in vivo), the “AR42J tumor AUC” value turned out to be 363 ± 75; the “Kidney AUC” value is given as 274 ± 19; the tumor retention entry is “favorable tumor retention”; the “uptake in healthy tissues such as the stomach, the lungs, and spleen” value is recorded as “higher compared with uptake of the other SSTR2 analogs”.

For `C[C@@H](O)[C@H](NC(=O)[C@@H]1CSSC[C@H](NC(=O)[C@@H](Cc2ccccc2)NC(=O)CN2CCN(CC(N)=O)CCN(CC(N)=O)CCN(CC(N)=O)CC2)C(=O)N[C@@H](Cc2ccc(O)cc2)C(=O)N[C@H](Cc2c[nH]c3ccccc23)C(=O)N[C@@H](CCCCN)C(=O)N[C@@H]([C@@H](C)O)C(=O)N1)C(=O)O` [[^212Pb]Pb-DOTAMTATE, metal not drawn], in series [1] (mouse, in vivo), the “AR42J tumor AUC” value came out at 583 ± 58; the “Kidney AUC” value is on record as 186 ± 28; the “uptake in healthy tissues such as the stomach, the lungs, and spleen” value is recorded as “higher compared with uptake of the other SSTR2 analogs”. In addition, the tissue uptake at 4 h in series [2] is roughly 50 %ID/g.

`C[C@@H](O)[C@H](NC(=O)[C@@H]1CSSC[C@H](NC(=O)[C@@H](Cc2ccccc2)NC(=O)CN2CCN(CC(=O)O)CCN(CC(=O)O)CCN(CC(=O)O)CC2)C(=O)N[C@@H](Cc2ccc(O)cc2)C(=O)N[C@H](Cc2c[nH]c3ccccc23)C(=O)N[C@@H](CCCCN)C(=O)N[C@@H]([C@@H](C)O)C(=O)N1)C(=O)O` [[^212Pb]Pb-DOTATATE, metal not drawn, reference compound]: the RCY in series [3] is on record as 98.3% ± 1.2%. In addition, in series [1] (decay corrected to time of collection), the “Tumor AUC / Kidney AUC ratio (T/K AUC ratio)” value is recorded as 0.73. In addition, in series [1] (setting [4]), the “AR42J tumor AUC” value came to 122 ± 12 and the “Kidney AUC” value was 161 ± 21. The “biodistribution profile / accumulation in healthy tissues” value in series [1] (tumor-bearing female mice) is recorded as “distinctly cleaner”. Further, the tissue uptake at 4 h in series [2] (444 kBq, 4 h after injection, i.v., AR42J tumor, read-out: average tumor uptake) was roughly 10 %ID/g.

Turning to `C[C@@H](O)[C@H](NC(=O)[C@@H]1CSSC[C@H](NC(=O)[C@@H](Cc2ccccc2)NC(=O)CCOCCOCCNC(=O)CN2CCN(CC(=O)O)CCN(CC(N)=O)CCN(CC(=O)O)CC2)C(=O)N[C@@H](Cc2ccc(O)cc2)C(=O)N[C@H](Cc2c[nH]c3ccccc23)C(=O)N[C@@H](CCCCN)C(=O)N[C@@H]([C@@H](C)O)C(=O)N1)C(=O)O` [[^212Pb]Pb-PSC-PEG2-TATE, PSC-amino-PEG2-acid-D-Phe-cyclo(Cys-Tyr-D-Trp-Lys-Thr-Cys)Thr-COOH, metal not drawn], in series [1] (mouse, in vivo), the “AR42J tumor AUC” value is 274 ± 59 and the “Kidney AUC” value is listed as 290 ± 27.

With `C[C@@H](O)[C@H](NC(=O)[C@@H]1CSSC[C@H](NC(=O)[C@@H](Cc2ccccc2)NC(=O)CN2CCN(CC(=O)O)CCN(CC(N)=O)CCN(CC(=O)O)CC2)C(=O)N[C@@H](Cc2ccc(O)cc2)C(=O)N[C@H](Cc2c[nH]c3ccccc23)C(=O)N[C@@H](CCCCN)C(=O)N[C@@H]([C@@H](C)O)C(=O)N1)C(=O)O` [[^212Pb]Pb-PSC-TATE, PSC-D-Phe-cyclo(Cys-Tyr-D-Trp-Lys-Thr-Cys)Thr-COOH, metal not drawn], in series [1] (mouse, in vivo), the “AR42J tumor AUC” value is 177 ± 22 and the “Kidney AUC” value is recorded as 156 ± 24.

As for `C[C@@H](O)[C@@H]1NC(=O)[C@H](CCCCN)NC(=O)[C@@H](Cc2c[nH]c3ccccc23)NC(=O)[C@H](Cc2ccc(O)cc2)NC(=O)[C@@H](NC(=O)[C@@H](Cc2ccccc2)NC(=O)CCOCCOCCNC(=O)CN2CCN(CC(=O)O)CCN(CC(N)=O)CCN(CC(=O)O)CC2)CSSC[C@@H](C(=O)N[C@H](CO)[C@@H](C)O)NC1=O` [^212Pb-PSC-PEG2-TOC, PSC-amino-PEG2-acid-D-Phe-cyclo(Cys-Tyr-D-Trp-Lys-Thr-Cys)Thr-OH, metal not drawn, reference compound], in series [1] (mouse, in vivo), the “AR42J tumor AUC” value is 290 ± 45 and the “Kidney AUC” value amounted to 320 ± 51.

For the compound `C[C@@H](O)[C@@H]1NC(=O)[C@H](CCCCN)NC(=O)[C@@H](Cc2c[nH]c3ccccc23)NC(=O)[C@H](Cc2ccc(O)cc2)NC(=O)[C@@H](NC(=O)[C@@H](Cc2ccccc2)NC(=O)CN2CCN(CC(=O)O)CCN(CC(N)=O)CCN(CC(=O)O)CC2)CSSC[C@@H](C(=O)N[C@H](CO)[C@@H](C)O)NC1=O` [^212Pb-PSC-TOC, PSC-D-Phe-cyclo(Cys-Tyr-D-Trp-Lys-Thr-Cys)Thr-OH, metal not drawn], in series [1] (mouse, in vivo), the “AR42J tumor AUC” value is on record as 353 ± 52 and the “Kidney AUC” value was determined as 377 ± 34.

With octreotate, the “binding to SSTR2 relative to TOC” value in the series on SSTR2 is listed as “approximately 10 fold”. In addition, in the series with somatostatin receptor 5, the “affinity for somatostatin receptor 5” value is “moderate affinity”. Moreover, the “affinity for somatostatin receptor 3” value with somatostatin receptor 3 is listed as “minimal binding”.

On to octreotide [TOC], for which the “affinity for SSTR2” value with SSTR2 was “high affinity”. Also, the “affinity for somatostatin receptor 5” value with somatostatin receptor 5 is “high affinity”. Further, the “affinity for somatostatin receptor 3” value in the series on somatostatin receptor 3 is given as “high affinity”.
